In the supplement of paper PMC10724198:
± gives the standard deviation of the averaged measurements.

System: Saccharomyces cerevisiae
Test: protein stability index of tFT-peptide fusion (C-terminal peptide) (PSI (0-1 scale)); higher = more stable (slower turnover)
Settings: genetic background: wild type; temperature: 30 C
Description: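 Multiplexed protein stability (MPS) profiling in S. cerevisiae. Random 12-aa peptides (tFT-X12 library) are fused to the C-terminus of a sfGFP-mCherry tandem fluorescent timer, after mCherry and a GGGS linker. Cells are FACS-sorted into 8 mCherry/sfGFP bins and deep-sequenced. The protein stability index (PSI) is the read-weighted bin average, scaled from 0 (unstable) to 1 (stable). Only peptides with >10 reads are reported; cells were grown at 30 °C in SC-His with glucose.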
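Further: PSI is a weighted mean of sequencing reads over stability bins, variants kept only with over 10 reads, mCherry proximal and sfGFP distal, peptide attached via GGGS linker.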

Row | Sequence | protein stability index
1 | FLDFLFLLVPSV | 0.554 ± 0.019
2 | RPLLHPRTGRSH | 0.677 ± 0.014
3 | CCFFPSLRSPSF | 0.726 ± 0.011
4 | SPVPRIRPPPLL | 0.699 ± 0.053
5 | ERPQTKPCQTPL | 0.728 ± 0.038
6 | QPPPDPPPPTPS | 0.592 ± 0.014
7 | LKRKKKHQMKRR | 0.699 ± 0.028
8 | DDDHRKITGTSR | 0.707 ± 0.091
9 | LKLTFFCRQNIF | 0.574 ± 0.0098
10 | KEKRLKATTQYE | 0.699 ± 0.015
11 | TRVAYINRGETR | 0.78 ± 0.2
12 | TVLHLCMMTFLI | 0.576 ± 0.0084
13 | LSPFCIRSLRPD | 0.647 ± 0.069
14 | PLSTFSLSSFTV | 0.691 ± 0.045
15 | FSVFFDFIIARF | 0.632 ± 0.067
16 | LIKSEECKNTDI | 0.704 ± 0.033
17 | PPRPPPLPPSRP | 0.627 ± 0.032
18 | AADSKERPPRPP | 0.625 ± 0.0092
19 | PRPDPAPPAALP | 0.6017 ± 0.0057
20 | ISSIRKNSKREE | 0.755 ± 0.031
21 | LGRPLLYALFFP | 0.724 ± 0.048
22 | SSPHQVLTTRAP | 0.705 ± 0.13
23 | WDFLLQGISSPR | 0.767 ± 0.12
24 | KKIKKKQKKKIQ | 0.664 ± 0.071
25 | PPRPSTPPRHSL | 0.695 ± 0.058

Row | Sequence | protein stability index
26 | GRDTVARSEGDR | 0.712 ± 0.037
27 | IIAESPWFLIIR | 0.444 ± 0.094
28 | RTHIKEYKNNKI | 0.647 ± 0.035
29 | LFPAAPAPPPPP | 0.658 ± 0.028
30 | PGRSMCITLVKT | 0.595 ± 0.0078
31 | GGTRCQYKNLFG | 0.683 ± 0.029
32 | RGGGGGGSRTGA | 0.706 ± 0.026
33 | QTRKRESPAMVT | 0.639 ± 0.02
34 | SPPGPNQVARPP | 0.6873 ± 0.0057
35 | PRSFPPRPPPPV | 0.726 ± 0.051
36 | LGGICPLYDLVF | 0.667 ± 0.076
37 | PTRRQEVPPEPT | 0.636 ± 0.058
38 | FLHVSLSFSCSL | 0.541 ± 0.0063
39 | AGEGLIRMIVRP | 0.694 ± 0.024
40 | VSCPGWVVHVIV | 0.48 ± 0.079
41 | KKTVKNNQNNTD | 0.654 ± 0.041
42 | ARLSHLQSLRFI | 0.5476 ± 0.0012
43 | INVKRSNAQRKG | 0.754 ± 0.058
44 | STGAVREFRFFA | 0.643 ± 0.053
45 | FSPSFGSLLVIC | 0.556 ± 0.02
46 | PHGSLPTRLPGP | 0.689 ± 0.035
47 | GTTHRSKRLRRK | 0.768 ± 0.035
48 | SPPSPLALSLRF | 0.707 ± 0.025
49 | FYPSRVPPLQSA | 0.662 ± 0.056
50 | AIRRNVYSCVYG | 0.603 ± 0.032

Row | Sequence | protein stability index
51 | VLRVSRHLKAVK | 0.65 ± 0.024
52 | QGKRQEEGERER | 0.68 ± 0.052
53 | CGGWTRRSGDMV | 0.678 ± 0.042
54 | QARQMEIRRLQT | 0.628 ± 0.047
55 | WREGKTCTRKGG | 0.57 ± 0.047
56 | ALKLVGSVWFGG | 0.676 ± 0.15
57 | GNFYFSGSGFFI | 0.709 ± 0.031
58 | SCSFPPSPFLCG | 0.677 ± 0.03
59 | CSLSLPAFSAPS | 0.669 ± 0.04
60 | TPPPLPSPAPRP | 0.715 ± 0.062
61 | DGFWGGASHQGW | 0.699 ± 0.0089
62 | TDGVVRPQRQAT | 0.69 ± 0.0093
63 | FVSFFPFPFLLL | 0.482 ± 0.045
64 | PFVIKSWSYVTR | 0.605 ± 0.02
65 | RISGDVNCLSPR | 0.718 ± 0.066
66 | FGAFCSWLLLHS | 0.61 ± 0.026
67 | VWKEPVQYSRQL | 0.626 ± 0.051
68 | YLCRLHLGGLSS | 0.602 ± 0.0075
69 | PISSYPPLPAPR | 0.718 ± 0.06
70 | EGGLDPFRVIMG | 0.643 ± 0.029
71 | LVGSRGCGKIVW | 0.6 ± 0.026
72 | RTWLLRTVFPRL | 0.704 ± 0.024
73 | SPFPSPVLPPHT | 0.7153 ± 0.006
74 | VCRSSGSFDLGI | 0.774 ± 0.064
75 | VVRLKRLPPCSS | 0.699 ± 0.077

Row | Sequence | protein stability index
76 | TSNRLDVDFPLS | 0.699 ± 0.0087
77 | VSSRHNCFRHGS | 0.696 ± 0.039
78 | CCRDLWVWLVKW | 0.619 ± 0.071
79 | LPSPYPPPRPLP | 0.711 ± 0.034
80 | VPYGKILQQGDI | 0.658 ± 0.048
81 | GGGRGRAGVGVW | 0.714 ± 0.05
82 | DACRLLGGRRCG | 0.717 ± 0.07
83 | PPTPAAPGLPPA | 0.677 ± 0.035
84 | GGSGPSGSPRRR | 0.727 ± 0.054
85 | LRLLSFFITSFL | 0.64 ± 0.13
86 | IKRRKRNRKRGP | 0.675 ± 0.041
87 | FIVGIQTKPVKL | 0.661 ± 0.11
88 | SRALNAPAPFLP | 0.747 ± 0.044
89 | LSTPPLPRPYPP | 0.654 ± 0.038
90 | YQCESDLFLVGV | 0.642 ± 0.041
91 | INVNNENLRGTE | 0.663 ± 0.072
92 | GCFFQPRWSLLS | 0.599 ± 0.0088
93 | MENEDYIVRKKK | 0.73 ± 0.054
94 | PRPPLRATASVV | 0.699 ± 0.033
95 | DVHNRSPNRAPE | 0.671 ± 0.042
96 | PAPPLPLTPPPL | 0.788 ± 0.014
97 | RQKTKRKDQKIK | 0.709 ± 0.023
98 | AEESPVDKRPKS | 0.728 ± 0.036
99 | GRPRERWGVGVV | 0.6865 ± 0.0023
100 | VMVVVGLQGTMV | 0.5962 ± 0.0032

Row | Sequence | protein stability index
101 | RRLRCNDCPFVV | 0.755 ± 0.085
102 | GLGGAWACGGGR | 0.719 ± 0.11
103 | EVNYKKRQNKKN | 0.71 ± 0.0066
104 | NKEYSLIIKTHN | 0.61529 ± 0.00011
105 | LLEKGHTRGLCF | 0.663 ± 0.017
106 | LFALLSGIDRCL | 0.634 ± 0.012
107 | DVERKKIKIARQ | 0.714 ± 0.047
108 | CFGSRMGVVGFC | 0.726 ± 0.065
109 | APRTPATRPNHP | 0.723 ± 0.045
110 | RVHRETLLPTGQ | 0.644 ± 0.036
111 | VCSFLSVDASPP | 0.699 ± 0.018
112 | TSLFVAGRVWRS | 0.703 ± 0.014
113 | VWGVCAVFGCAG | 0.644 ± 0.12
114 | YVKEEEKKKESK | 0.681 ± 0.079
115 | VLRLGFYNINKL | 0.676 ± 0.075
116 | SFFLSFFSPLVL | 0.63 ± 0.038
117 | YLSSTVVRSMLF | 0.644 ± 0.014
118 | GGFTSIRLTHLS | 0.698 ± 0.043
119 | PALASHLAPLDP | 0.6958 ± 0.0049
120 | DEMNEGHVPPGV | 0.718 ± 0.071
121 | TPPLARPSPTAL | 0.534 ± 0.12
122 | GIYFARRVVDFG | 0.65 ± 0.011
123 | CITLLDILFRPS | 0.684 ± 0.019
124 | PLPSAPVPPSAS | 0.71002 ± 0.0003
125 | LVLFFPMLRIRI | 0.515 ± 0.041

Row | Sequence | protein stability index
126 | SFHIAARFRSLP | 0.719 ± 0.062
127 | QVDITASPDRTT | 0.745 ± 0.056
128 | TPRPPPLPPRPP | 0.603 ± 0.029
129 | IPDPSPFTCPNV | 0.557 ± 0.02
130 | DKKNIRIYNKTL | 0.669 ± 0.042
131 | ALSVASVAVVPL | 0.56 ± 0.015
132 | LGGSVAIWSWNP | 0.763 ± 0.12
133 | VRHLGAIPQLSG | 0.637 ± 0.095
134 | RCVLWSVLSTQV | 0.672 ± 0.042
135 | SKSDRNMQTIHY | 0.605 ± 0.067
136 | GSVGSFIVVVHF | 0.552 ± 0.013
137 | LSSVFLGICIMS | 0.543 ± 0.11
138 | MFVTQTGNRCKA | 0.668 ± 0.018
139 | ELSNLRGLHTCT | 0.654 ± 0.02
140 | LPCVSTCCSCLL | 0.706 ± 0.011
141 | AVVRGRADCVMV | 0.656 ± 0.017
142 | PSPPPHPIHPMA | 0.754 ± 0.18
143 | AIYDSFRISYRT | 0.675 ± 0.028
144 | GWLGGGVRLGRL | 0.714 ± 0.067
145 | GSGVVVEGFLPD | 0.65 ± 0.021
146 | PPPPVPPPALPL | 0.644 ± 0.045
147 | EKTQQMPQPNNQ | 0.663 ± 0.007
148 | LSCLIPLPAPPL | 0.662 ± 0.052
149 | TDPKLTRTHENE | 0.674 ± 0.014
150 | IVGEDRRRTAFR | 0.678 ± 0.026

Row | Sequence | protein stability index
151 | VPPNTLTAPHLF | 0.844 ± 0.046
152 | FYYAERGSVERQ | 0.641 ± 0.0095
153 | GDYKESAFRMDG | 0.761 ± 0.043
154 | FYRWDTFRWTRG | 0.683 ± 0.01
155 | GTVEGAVQGLVE | 0.718 ± 0.045
156 | QAIEAGPPEHGY | 0.677 ± 0.036
157 | PSPHAITSHFRP | 0.723 ± 0.04
158 | FDLLSVGRARSW | 0.716 ± 0.036
159 | AVYWRRIRRGRA | 0.6714 ± 0.0018
160 | PSPPPPSLPPPP | 0.67 ± 0.15
161 | CPSRPPALPPPE | 0.66835 ± 0.00049
162 | VAPPRLSHGAPY | 0.545 ± 0.061
163 | TWSLLHDTQTWD | 0.78 ± 0.068
164 | SAVVPACIPKCE | 0.694 ± 0.035
165 | FQLFLPPFRLPP | 0.801 ± 0.18
166 | ARGSRNHRGAGA | 0.738 ± 0.067
167 | PPPTPPPAPSHR | 0.677 ± 0.1
168 | PSYPTAPHHSAA | 0.704 ± 0.043
169 | VLPTHCPPPSSR | 0.715 ± 0.017
170 | SPSPSPPPAISI | 0.657 ± 0.015
171 | YGRRPGSRGDEH | 0.699 ± 0.025
172 | PPPPTPRPPSSL | 0.728 ± 0.061
173 | TTQTYAPLTPHR | 0.64 ± 0.097
174 | LVSPPSPPLPPP | 0.728 ± 0.12
175 | GMRGGGRAQDAR | 0.6609 ± 0.002

Row | Sequence | protein stability index
176 | KRKKIQNRGKKK | 0.718 ± 0.0086
177 | RPPHQAPPLPPS | 0.704 ± 0.062
178 | PIPPSTRSLHPL | 0.668 ± 0.027
179 | VVRKVALVALPL | 0.574 ± 0.05
180 | SPFPAWPIPASV | 0.612 ± 0.036
181 | PFSVDLPWPPWE | 0.806 ± 0.053
182 | VLPRVLADVRST | 0.685 ± 0.03
183 | PDGPSIVVPGQG | 0.678 ± 0.017
184 | RGISAAAAPGEG | 0.706 ± 0.024
185 | LFLGSFSRSLWP | 0.755 ± 0.015
186 | AGMATWGILVSL | 0.52 ± 0.008
187 | IFRASTGASYRT | 0.5738 ± 0.0034
188 | NRNKKTKKKVII | 0.6697 ± 0.0062
189 | HLQLCAPISTTD | 0.652 ± 0.07
190 | PPQGMTGGRGDR | 0.697 ± 0.077
191 | NLCPLPPPLLTS | 0.675 ± 0.035
192 | HWHLIKIKLKEK | 0.742 ± 0.043
193 | AGAGGGGAVVVG | 0.637 ± 0.039
194 | GSAGGGLLCGCP | 0.657 ± 0.008
195 | KVIKEQNKKIDR | 0.641 ± 0.026
196 | GPRRVAVAGETS | 0.715 ± 0.037
